Experiments:
[1] = biological target: T1, ribosomal protein L7/L12 of Escherichia coli (EC), recombinant tagged fusion protein (Escherichia coli, UniProt P0A7K2 1-121); experiment: ELISA on coated recombinant L7/L12 (10 ng/mL), antibody 10 ug/mL, A450; + means absorbance >= 0.3
[2] = biological target: ribosomal protein L7/L12 of Staphylococcus aureus (SA), recombinant tagged fusion protein (Staphylococcus aureus); experiment: ELISA on coated recombinant L7/L12, antibody 10 ug/mL
[3] = biological target: ribosomal protein L7/L12 of Citrobacter freundii (CF), recombinant tagged fusion protein (Citrobacter freundii); experiment: as above
[4] = biological target: ribosomal protein L7/L12 of Rahnella aquatilis (RA), recombinant tagged fusion protein (Rahnella aquatilis); experiment: as above
[5] = biological target: ribosomal protein L7/L12 of Enterobacter cloacae (ECL), recombinant tagged fusion protein (Enterobacter cloacae); experiment: as above
[6] = biological target: ribosomal protein L7/L12 of Serratia liquefaciens (SL), recombinant tagged fusion protein (Serratia liquefaciens); experiment: as above
[7] = biological target: ribosomal protein L7/L12 of Listeria monocytogenes (LM), recombinant tagged fusion protein (Listeria monocytogenes); experiment: as above
[8] = biological target: T2, ribosomal protein L7/L12 of Bacillus subtilis (BS), recombinant tagged fusion protein (Bacillus subtilis, UniProt P02394 1-123); experiment: as above
T2 sequence: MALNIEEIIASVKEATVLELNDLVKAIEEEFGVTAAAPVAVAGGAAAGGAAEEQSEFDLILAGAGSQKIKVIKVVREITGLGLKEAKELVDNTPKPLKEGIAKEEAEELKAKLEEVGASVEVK

[9] = biological target: T1, ribosomal protein L7/L12 of Escherichia …; experiment: as above
[10] = biological target: ribosomal protein L7/L12 of Klebsiella pneumoniae (KP), recombinant tagged fusion protein (Klebsiella pneumoniae); experiment: as above
[11] = biological target: ribosomal protein L7/L12 of Salmonella enterica (SE), recombinant tagged fusion protein (Salmonella enterica); experiment: as above
[12] = biological target: T3, ribosomal protein L7/L12 of Pseudomonas aeruginosa (PA), recombinant tagged fusion protein (Pseudomonas aeruginosa, UniProt Q9HWC8 1-122); experiment: as above
T3 sequence: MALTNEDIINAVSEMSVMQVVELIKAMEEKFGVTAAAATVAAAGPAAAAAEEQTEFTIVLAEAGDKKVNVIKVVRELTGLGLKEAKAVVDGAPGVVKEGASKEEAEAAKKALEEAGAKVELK

| Binder | binding result [1] | absorbance (450 nm) [2] | absorbance (450 nm) [3] | absorbance (450 nm) [4] | absorbance (450 nm) [5] | absorbance (450 nm) [6] | absorbance (450 nm) [7] | absorbance (450 nm) [8] | absorbance (450 nm) [9] | absorbance (450 nm) [10] | absorbance (450 nm) [11] | absorbance (450 nm) [12] |
| --- | --- | --- | --- | --- | --- | --- | --- | --- | --- | --- | --- | --- |
| Specific Antibody A (HI142D11.3) (antibody, V domains shown) VH: EVQLQQSGAELVKPGASVKLSCTASGFNIKDTYIHWVKQRPEQGLEWIGRIDPANGNTKYDPKFQGKATITADTSSNTAYLQLSSLTSEDTAVYYCPRPYGYVGWYFDVWGAGTTVTVSS VL: DIVMTQSHKFMSTSVGDRVSITCKASQDVRNAVAWYQQKPGQSPKLLISSASYRYSGVPDRFTGSGSGTDFTFTISSVQAEDLAVYYCQQHYDTPPTFGGGTKLEIK | binds |  |  |  |  |  |  |  |  |  |  |  |
| Specific Antibody D (EC50C1) (antibody, V domains shown) VH: QVQLQQSGAELAKPGASVKMSCKASGYTFTSYWMNWVKQRPGQGLEWIGYINPNTGYTEYDQKFKDKATLTADKSSSTAYMQLSSLTSEDSAVYYCARYWAYFEYWGQGTTLTVSS VL: DIKMTQSPSSMYASLGERVTITCKASQDINSYLSWFQQKPGKSPKTLIYRANRLVDGVPSRFSGSGSGQDYSLTISSLEYEDMGIYYCLQYDEFRTFGGGTKLEIK | binds |  |  |  |  |  |  |  |  |  |  |  |
| Generic Antibody C (CP141A190.1) (antibody, V domains shown) VH: QVQLQQPGAELVKPGASVKLSCKTSGYNFTSNWIHWVKQRPGQGLEWIGEINPSNGRANYNEKFKNKATLTVDKSSSTAFMHLSSLTSEDSAVYFCSRGDFDEGFTYWGQGTLVTVSA VL: QIVLTQSPAIMSASLGERVTMTCTASSNVNSDYLHWYQQKPGSSPRLWIYTTSNLASGVPTRFSGNGSGTSYSLTISSMEAEDAATYYCHQYHRSPRTFGGGTKLEIK |  | ≥ 0.3 | ≥ 0.3 | ≥ 0.3 | ≥ 0.3 | ≥ 0.3 | ≥ 0.3 | ≥ 0.3 | ≥ 0.3 | ≥ 0.3 | ≥ 0.3 | ≥ 0.3 |
| Generic Antibody A (PA51B2) (antibody, V domains shown) VH: QVQLQQPGSVLVRPGASVKLSCKPSGYTFTGSWMHWTKQRPGQGLEWIGEIHPYSGNTNYNEKFRVKATLTVDTSSSTTYVDLSSLTSDDSAVYYCASGDFDAGFTYWGQGTLVTVSA VL: DIVLTQSPASLAVSLGRRATISCKASQSVDYDGDSYMNWYQQKPGQPPKLLIYVASNLESGIPARFSGSGSGTDFTLNIHPVEEEDAATYYCQQTNEDPFTFGAGTKLELK |  | ≥ 0.3 | ≥ 0.3 | ≥ 0.3 | ≥ 0.3 | ≥ 0.3 | ≥ 0.3 | ≥ 0.3 | ≥ 0.3 | ≥ 0.3 | ≥ 0.3 | ≥ 0.3 |
| Generic Antibody B (LP54A3) (antibody, V domains shown) VH: EVQLQQSGAELVKPGASVRLSCSASGFNIKDTYMHWMRQRPEQGLEWIGRIDPANGNAKYDPKFQVKATITADTSSNTASLQFSSLTSEDTAVYFCASESLDDMYYFDYWGQGTTLTVSS VL: DIVMTQSQKFMSTSVGDRVSVTCKASQNVGVNVAWYQQKPGQSPKALIYSASYRYSGVPDRFTGSGSGTDFTLTISNVQSEDLAEYFCQQYHSYLYTFGGGTKLEIK |  |  |  |  |  |  |  | ≥ 0.3 | ≥ 0.3 |  |  | ≥ 0.3 |
